The source of these data is article PMC9974095, “TP63 gain-of-function mutations cause premature ovarian insufficiency by inducing oocyte apoptosis” (The Journal of Clinical Investigation, 2023).

One data set addresses TAp63αΔTID. Briefly: co-IP (anti-p63 IP, GFP Western blot, quantified). The conditions noted are these: HEK293 cells cotransfected with TAp63αΔTID and GFP-TID plasmids; 3 independent experiments; parent: est. 6.4; read off a plot. (In general: In western blotting, separated proteins are transferred to a membrane and probed.)
Data set [1] has as its target TAp63α p.Q568fs*3 (human) (UniProt Q9H3D4). Briefly: native gel or EMSA; BN-PAGE (NativePAGE 3%-12% Bis-Tris) of lysates of transfected SAOS-2 cells treated with 10 uM MG132 for 12 h; blot with anti-p63. A general note: In EMSA bound probe runs differently from free probe, usually more slowly.
Data set [2] deals with the molecule itself. Described as above.

With GFP-TID, wild type L646P, the response in the data set with TAp63αΔTID came to 0.58 % Input.
The same measure, in the same setting: next, GFP-TID, wild type R643Q: 2.4 % Input; GFP-TID, wild type R655Q: 2.8 % Input.
Usually stoichiometry N stands for the number of molecules, sites or subunits per partner or assembly. “TAp63α p.Q568fs*3 (from UniProt Q9H3D4-1 1-567) (domain or fragment)” displayed a stoichiometry N in data set [1] of 4.
Regarding GFP-TID, wild type R647C, the response with TAp63αΔTID is 3.5 % Input.

B1: TAp63α p.R647C (natural protein, human, UniProt Q9H3D4-1 1-680, looked up)
chain: MNFETSRCATLQYCPDPYIQRFVETPAHFSWKESYYRSTMSQSTQTNEFLSPEVFQHIWDFLEQPICSVQPIDLNFVDEPSEDGATNKIEISMDCIRMQDSDLSDPMWPQYTNLGLLNSMDQQIQNGSSSTSPYNTDHAQNSVTAPSPYAQPSSTFDALSPSPAIPSNTDYPGPHSFDVSFQQSSTAKSATWTYSTELKKLYCQIAKTCPIQIKVMTPPPQGAVIRAMPVYKKAEHVTEVVKRCPNHELSREFNEGQIAPPSHLIRVEGNSHAQYVEDPITGRQSVLVPYEPPQVGTEFTTVLYNFMCNSSCVGGMNRRPILIIVTLETRDGQVLGRRCFEARICACPGRDRKADEDSIRKQQVSDSTKNGDGTKRPFRQNTHGIQMTSIKKRRSPDDELLYLPVRGRETYEMLLKIKESLELMQYLPQHTIETYRQQQQQQHQHLLQKQTSIQSPSSYGNSSPPLNKMNSMNKLPSVSQLINPQQRNALTPTTIPDGMGANIPMMGTHMPMAGDMNGLSPTQALPPPLSMPSTSHCTPPPPYPTDCSIVSFLARLGCSSCLDYFTTQGLTTIYQIEHYSMDDLASLKIPEQFRHAIWKGILDHRQLHEFSSPSHLLRTPSSASTVSVGSSETRGERVIDAVRFTLCQTISFPPRDEWNDFNFDMDARRNKQQRIKEEGE
notes: Variant found in three patients with POI; source: SAOS-2, transfected, MG132-treated, in lysate
In the case of B1, in data set [2], the “stoichiometry N” value turned out to be 4.
